From patent CN113683697A (SHANGHAI XIANGYAO BIOTECHNOLOGY CO LTD, dated 2021)
Changes are numbered by the printed parent chain.

T1: B7-H3 (4Ig-B7-H3) endogenously expressed on MDA-MB-231 cells (UniProt Q5ZPR3 29-534, limits assumed)
T1 construct: whole, on cells; also called 细胞表面的B7-H3抗原
T1 sequence (looked up): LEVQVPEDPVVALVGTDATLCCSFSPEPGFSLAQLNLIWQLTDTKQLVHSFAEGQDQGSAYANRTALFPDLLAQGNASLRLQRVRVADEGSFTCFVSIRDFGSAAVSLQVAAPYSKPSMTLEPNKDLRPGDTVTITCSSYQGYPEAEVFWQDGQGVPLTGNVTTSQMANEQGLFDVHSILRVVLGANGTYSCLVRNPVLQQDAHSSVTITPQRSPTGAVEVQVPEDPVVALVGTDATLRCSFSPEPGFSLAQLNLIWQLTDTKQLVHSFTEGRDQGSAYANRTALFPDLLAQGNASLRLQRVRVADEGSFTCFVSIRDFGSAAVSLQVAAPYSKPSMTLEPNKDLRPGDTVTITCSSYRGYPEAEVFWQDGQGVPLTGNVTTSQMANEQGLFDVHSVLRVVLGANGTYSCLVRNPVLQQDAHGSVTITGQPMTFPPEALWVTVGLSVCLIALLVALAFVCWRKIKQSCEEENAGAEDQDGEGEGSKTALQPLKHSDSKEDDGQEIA

T2: 人B7-H3变体1(4Ig-B7-H3) on stable cells 293-h4Ig-B7-H3-copGFP (human, UniProt Q5ZPR3 29-534)
T2 construct: Full-length CDS cloned in pCDH-EF1-T2A-copGFP and expressed on stably transduced cells; residues left by T2A cleavage not described
T2 sequence: T1 sequence (looked up)

B1: scFv-27B4-H1-L1 (scFv)
scFv: QVQLVQSGAEVKKPGASVKVSCKASGYTFTTYWMHWVRQAPGQGLEWMGIIYPGDGGSSYAQKFQGRVTMTRDTSTSTVYMELSSLRSEDTAVYYCARGGNYISFPMYYWGQGTLVTVSSGGGGSGGGGSGGGGSGGGGASDIQMTQSPSSLSASMGDRVTITCKASRGVSTALNWYQQKPGKAPKLLIYWASSLQSGVPSRFSGSGSGTDFTLTISSLQPEDFATYYCQQHYDTPYTFGQGTKLEIK
notes: VH-linker-VL in phage display vector pXY, expressed in TG1, purified on a nickel column
B2: scFv-27B4-H2-L1 (scFv)
scFv: B1 scFv with A16S, M34I, H35S, I50G, S59N, M70I, R72A, T74E, V79A
notes: as for B1
B3: scFv-27B4-H1-L2 (scFv)
scFv: B1 scFv with D142V, Q144W, S151L, M156T, T163S, N175A, K186E, S194T, S218C, P221S
notes: as for B1
B4: scFv-27B4-H3-L3 (scFv)
scFv: QVQLVQSGSELKKPGASVKVSCKASGYTFTTYWMNWVRQAPGQGLEWMGWIYPGDGGSTYAQGFTGRFVFSLDTSVSTAYLQICSLKAEDTAVYYCARGGNYISFPMYYWGQGTLVTVSSGGGGSGGGGSGGGGSGGGGASEIVMTQSPATLSVSPGERATLSCKASRGVSTALAWYQQKPGQAPRLLIYWASTRATGIPARFSGSGSGTEFTLTISSLQSEDFAVYYCQQHYDTPYTFGQGTKLEIK
notes: as for B1
B5: scFv-27B4-H2-L2 (scFv)
scFv: QVQLVQSGAEVKKPGSSVKVSCKASGYTFTTYWISWVRQAPGQGLEWMGGIYPGDGGSNYAQKFQGRVTITADESTSTAYMELSSLRSEDTAVYYCARGGNYISFPMYYWGQGTLVTVSSGGGGSGGGGSGGGGSGGGGASVIWMTQSPSLLSASTGDRVTISCKASRGVSTALAWYQQKPGKAPELLIYWASTLQSGVPSRFSGSGSGTDFTLTISCLQSEDFATYYCQQHYDTPYTFGQGTKLEIK
notes: Expressed from phage display vector pXY in TG1, purified on a nickel column
B6: scFv-27B4-H3-L4 (scFv)
scFv: QVQLVQSGSELKKPGASVKVSCKASGYTFTTYWMNWVRQAPGQGLEWMGWIYPGDGGSTYAQGFTGRFVFSLDTSVSTAYLQICSLKAEDTAVYYCARGGNYISFPMYYWGQGTLVTVSSGGGGSGGGGSGGGGSGGGGASEIVLTQSPDFQSVTPKEKVTITCKASRGVSTALHWYQQKPDQSPKLLIKWASQSFSGVPSRFSGSGSGTDFTLTINSLEAEDAATYYCQQHYDTPYTFGQGTKLEIK
notes: as for B1
B7: scFv-27B4-H4-L3 (scFv)
scFv: EVQLVQSGAEVKKPGESLKISCKASGYTFTTYWIGWVRQMPGKGLEWMGIIYPGDGGSRYSPSFQGQVTISADKSISTAYLQWSSLKASDTAMYYCARGGNYISFPMYYWGQGTLVTVSSGGGGSGGGGSGGGGSGGGGASEIVMTQSPATLSVSPGERATLSCKASRGVSTALAWYQQKPGQAPRLLIYWASTRATGIPARFSGSGSGTEFTLTISSLQSEDFAVYYCQQHYDTPYTFGQGTKLEIK
notes: as for B5
B8: scFv-27B4-H5-L1 (scFv)
scFv: QVQLVESGGGVVQPGRSLRLSCKASGYTFTTYWMHWVRQAPGKGLEWVAVIYPGDGGSYYTDSVKGRFTISRDNSKNTLYLQMNSLRAEDTAVYYCARGGNYISFPMYYWGQGTLVTVSSGGGGSGGGGSGGGGSGGGGASDIQMTQSPSSLSASMGDRVTITCKASRGVSTALNWYQQKPGKAPKLLIYWASSLQSGVPSRFSGSGSGTDFTLTISSLQPEDFATYYCQQHYDTPYTFGQGTKLEIK
notes: as for B1
B9: scFv-27B4-H1-L5 (scFv)
scFv: QVQLVQSGAEVKKPGASVKVSCKASGYTFTTYWMHWVRQAPGQGLEWMGIIYPGDGGSSYAQKFQGRVTMTRDTSTSTVYMELSSLRSEDTAVYYCARGGNYISFPMYYWGQGTLVTVSSGGGGSGGGGSGGGGSGGGGASDIVMTQTPLSLSVTPGQPASISCKASRGVSTALYWYLQKPGQPPQLLIYWASNRFSGVPDRFSGSGSGTDFTLKISRVEAEDVGVYYCQQHYDTPYTFGQGTKLEIK
notes: as for B1
B10: scFv-27B4-H2-L5 (scFv)
scFv: B9 scFv with A16S, M34I, H35S, I50G, S59N, M70I, R72A, T74E, V79A
notes: as for B1
B11: scFv-27B4-H3-L5 (scFv)
scFv: QVQLVQSGSELKKPGASVKVSCKASGYTFTTYWMNWVRQAPGQGLEWMGWIYPGDGGSTYAQGFTGRFVFSLDTSVSTAYLQICSLKAEDTAVYYCARGGNYISFPMYYWGQGTLVTVSSGGGGSGGGGSGGGGSGGGGASDIVMTQTPLSLSVTPGQPASISCKASRGVSTALYWYLQKPGQPPQLLIYWASNRFSGVPDRFSGSGSGTDFTLKISRVEAEDVGVYYCQQHYDTPYTFGQGTKLEIK
notes: as for B1
B12: scFv-27B4-H3-L1 (scFv)
scFv: QVQLVQSGSELKKPGASVKVSCKASGYTFTTYWMNWVRQAPGQGLEWMGWIYPGDGGSTYAQGFTGRFVFSLDTSVSTAYLQICSLKAEDTAVYYCARGGNYISFPMYYWGQGTLVTVSSGGGGSGGGGSGGGGSGGGGASDIQMTQSPSSLSASMGDRVTITCKASRGVSTALNWYQQKPGKAPKLLIYWASSLQSGVPSRFSGSGSGTDFTLTISSLQPEDFATYYCQQHYDTPYTFGQGTKLEIK
notes: as for B1
B13: scFv-27B4-H3-L2 (scFv)
scFv: B12 scFv with D142V, Q144W, S151L, M156T, T163S, N175A, K186E, S194T, S218C, P221S
notes: as for B1
B14: scFv-27B4-H1-L3 (scFv)
scFv: QVQLVQSGAEVKKPGASVKVSCKASGYTFTTYWMHWVRQAPGQGLEWMGIIYPGDGGSSYAQKFQGRVTMTRDTSTSTVYMELSSLRSEDTAVYYCARGGNYISFPMYYWGQGTLVTVSSGGGGSGGGGSGGGGSGGGGASEIVMTQSPATLSVSPGERATLSCKASRGVSTALAWYQQKPGQAPRLLIYWASTRATGIPARFSGSGSGTEFTLTISSLQSEDFAVYYCQQHYDTPYTFGQGTKLEIK
notes: as for B1
B15: scFv-27B4-H2-L3 (scFv)
scFv: B14 scFv with A16S, M34I, H35S, I50G, S59N, M70I, R72A, T74E, V79A
notes: as for B5
B16: scFv-27B4-H1-L4 (scFv)
scFv: QVQLVQSGAEVKKPGASVKVSCKASGYTFTTYWMHWVRQAPGQGLEWMGIIYPGDGGSSYAQKFQGRVTMTRDTSTSTVYMELSSLRSEDTAVYYCARGGNYISFPMYYWGQGTLVTVSSGGGGSGGGGSGGGGSGGGGASEIVLTQSPDFQSVTPKEKVTITCKASRGVSTALHWYQQKPDQSPKLLIKWASQSFSGVPSRFSGSGSGTDFTLTINSLEAEDAATYYCQQHYDTPYTFGQGTKLEIK
notes: as for B1
B17: scFv-27B4-H2-L4 (scFv)
scFv: B16 scFv with A16S, M34I, H35S, I50G, S59N, M70I, R72A, T74E, V79A
notes: as for B1
B18: scFv-27B4-H4-L5 (scFv)
scFv: EVQLVQSGAEVKKPGESLKISCKASGYTFTTYWIGWVRQMPGKGLEWMGIIYPGDGGSRYSPSFQGQVTISADKSISTAYLQWSSLKASDTAMYYCARGGNYISFPMYYWGQGTLVTVSSGGGGSGGGGSGGGGSGGGGASDIVMTQTPLSLSVTPGQPASISCKASRGVSTALYWYLQKPGQPPQLLIYWASNRFSGVPDRFSGSGSGTDFTLKISRVEAEDVGVYYCQQHYDTPYTFGQGTKLEIK
notes: as for B1
B19: scFv-27B4-H4-L1 (scFv)
scFv: EVQLVQSGAEVKKPGESLKISCKASGYTFTTYWIGWVRQMPGKGLEWMGIIYPGDGGSRYSPSFQGQVTISADKSISTAYLQWSSLKASDTAMYYCARGGNYISFPMYYWGQGTLVTVSSGGGGSGGGGSGGGGSGGGGASDIQMTQSPSSLSASMGDRVTITCKASRGVSTALNWYQQKPGKAPKLLIYWASSLQSGVPSRFSGSGSGTDFTLTISSLQPEDFATYYCQQHYDTPYTFGQGTKLEIK
notes: as for B1
B20: scFv-27B4-H4-L2 (scFv)
scFv: B19 scFv with D142V, Q144W, S151L, M156T, T163S, N175A, K186E, S194T, S218C, P221S
notes: as for B5
B21: scFv-27B4-H4-L4 (scFv)
scFv: EVQLVQSGAEVKKPGESLKISCKASGYTFTTYWIGWVRQMPGKGLEWMGIIYPGDGGSRYSPSFQGQVTISADKSISTAYLQWSSLKASDTAMYYCARGGNYISFPMYYWGQGTLVTVSSGGGGSGGGGSGGGGSGGGGASEIVLTQSPDFQSVTPKEKVTITCKASRGVSTALHWYQQKPDQSPKLLIKWASQSFSGVPSRFSGSGSGTDFTLTINSLEAEDAATYYCQQHYDTPYTFGQGTKLEIK
notes: as for B1

What follows are binders tested against T1, B7-H3 (4Ig-B7-H3) endogenously … (assay: FACS, MDA-MB-231 cells).

Row | Binder | binding result
1 | B1 | binds
2 | B2 | binds
3 | B3 | binds
4 | B4 | binds
5 | B5 | binds
6 | B6 | binds
7 | B7 | binds
8 | B8 | binds
9 | B9 | binds
10 | B10 | binds
11 | B11 | binds
12 | B12 | binds
13 | B13 | binds
14 | B14 | binds
15 | B15 | binds
16 | B16 | binds
17 | B17 | binds
18 | B18 | binds
19 | B19 | binds
20 | B20 | binds
21 | B21 | binds

Each binder was assayed against T2, 人B7-H3变体1(4Ig-B7-H3) on stable cells … (assay: FACS, 293-h4Ig-B7-H3-copGFP stable cells).

Row | Binder | binding result
22 | B1 | binds
23 | B2 | binds
24 | B3 | binds
25 | B4 | binds
26 | B5 | binds
27 | B6 | binds
28 | B7 | binds
29 | B8 | binds
30 | B9 | binds
31 | B10 | binds
32 | B11 | binds
33 | B12 | binds
34 | B13 | binds
35 | B14 | binds
36 | B15 | binds
37 | B16 | binds
38 | B17 | binds
39 | B18 | binds
40 | B19 | binds
41 | B20 | binds
42 | B21 | binds
